The values that follow come from publication PMC8096239, “Nse5/6 is a negative regulator of the ATPase activity of the Smc5/6 complex”.

One may read the Kd as the free concentration of one partner at which half of the binding sites on the other are occupied at equilibrium, for simple one-to-one binding.

Series [1] has as its target Smc5/6 holo-complex (S5-S6-N2/N1-N3-N4) (Saccharomyces cerevisiae, UniProt Q08204;Q12749;P38632;Q07913;Q05541;P43124 1-1093;1-1114;1-267;1-336;1-303;1-402). Nature of the series: EMSA; Hill slope 3.5; 200 nM DNA; two shifted species; 3 repeats; EMSA: 200 nM hairpin, 20 mM HEPES-NaOH pH 7.5, 150 mM NaCl, 0.5 mM TCEP, 30 min at 4 C; 0.8% TBE-agarose gel, 50 V, 3 h, 4 C. The settings on record: protein: recombinant, tags: Smc5-FLAG, Smc6-AVI-HIS, HA-Nse2, HIS-TEV-Nse1, Nse3 untagged, Nse4-HALO-Myc, copies: 1;1;1;1;1;1, label: fluorescein on position 5 of thymine, 6-carbon spacer, 48 bp stem, 4 nt loop AATA, blunt end. In general terms: A gel shift assay detects complexes by their altered migration in electrophoresis.

A further series has as its target T1, Nse5/6 (Saccharomyces cerevisiae, UniProt Q03718;P40026 1-556;1-464).
T1 sequence 1: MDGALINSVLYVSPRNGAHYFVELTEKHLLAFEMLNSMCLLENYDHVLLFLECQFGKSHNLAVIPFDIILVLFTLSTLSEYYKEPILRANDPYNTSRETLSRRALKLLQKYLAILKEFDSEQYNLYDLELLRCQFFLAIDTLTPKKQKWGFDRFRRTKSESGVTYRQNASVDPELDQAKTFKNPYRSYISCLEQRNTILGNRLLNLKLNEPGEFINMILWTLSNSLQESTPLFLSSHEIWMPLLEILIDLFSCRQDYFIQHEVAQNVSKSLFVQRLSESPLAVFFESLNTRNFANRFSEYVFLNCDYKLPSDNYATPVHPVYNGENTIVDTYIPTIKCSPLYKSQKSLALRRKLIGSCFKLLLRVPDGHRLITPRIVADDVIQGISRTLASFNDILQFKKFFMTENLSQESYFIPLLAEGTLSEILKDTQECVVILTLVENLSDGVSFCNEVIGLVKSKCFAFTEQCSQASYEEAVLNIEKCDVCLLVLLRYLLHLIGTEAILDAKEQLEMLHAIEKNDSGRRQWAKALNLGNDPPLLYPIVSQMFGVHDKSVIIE
T1 sequence 2: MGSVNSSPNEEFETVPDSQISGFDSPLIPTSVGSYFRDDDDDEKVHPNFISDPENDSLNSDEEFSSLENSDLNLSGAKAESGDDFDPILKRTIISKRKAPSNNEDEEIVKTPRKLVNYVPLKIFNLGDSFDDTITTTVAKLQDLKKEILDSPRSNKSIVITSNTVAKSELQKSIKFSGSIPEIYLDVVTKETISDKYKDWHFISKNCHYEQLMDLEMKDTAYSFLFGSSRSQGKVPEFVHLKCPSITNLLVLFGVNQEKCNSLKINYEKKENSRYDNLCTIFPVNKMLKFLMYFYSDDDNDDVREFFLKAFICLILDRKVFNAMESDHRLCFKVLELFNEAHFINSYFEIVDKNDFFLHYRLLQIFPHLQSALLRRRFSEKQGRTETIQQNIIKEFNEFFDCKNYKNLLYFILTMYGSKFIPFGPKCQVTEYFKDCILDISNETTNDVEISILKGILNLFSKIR
Put plainly: EMSA; more extensive concentration range; EMSA: 200 nM hairpin, 20 mM HEPES-NaOH pH 7.5, 150 mM NaCl, 0.5 mM TCEP, 30 min at 4 C; 0.8% TBE-agarose gel, 50 V, 3 h, 4 C. To be noted: protein: recombinant, tags: Nse5-C.tag (GAAEPEA), HIS-3C-Nse6, copies: 1;1, label: fluorescein on position 5 of thymine, 6-carbon spacer, 48 bp stem, 4 nt loop AATA, blunt end.

Series [2] concerns the target Smc5/6 core complex (S5-S6-N2) (Saccharomyces cerevisiae, UniProt Q08204;Q12749;P38632 1-1093;1-1114;1-267). Put plainly: EMSA; some aggregated material in wells at high concentration; EMSA: 200 nM hairpin, 20 mM HEPES-NaOH pH 7.5, 150 mM NaCl, 0.5 mM TCEP, 30 min at 4 C; 0.8% TBE-agarose gel, 50 V, 3 h, 4 C. To be noted: protein: recombinant, tags: Smc5-FLAG, Smc6-AVI-HIS, HA-Nse2, copies: 1;1;1, label: fluorescein on position 5 of thymine, 6-carbon spacer, 48 bp stem, 4 nt loop AATA, blunt end.

Sequence of Smc5/6 core complex (S5-S6-N2) (Q08204 whole entry, chain 1 of 3): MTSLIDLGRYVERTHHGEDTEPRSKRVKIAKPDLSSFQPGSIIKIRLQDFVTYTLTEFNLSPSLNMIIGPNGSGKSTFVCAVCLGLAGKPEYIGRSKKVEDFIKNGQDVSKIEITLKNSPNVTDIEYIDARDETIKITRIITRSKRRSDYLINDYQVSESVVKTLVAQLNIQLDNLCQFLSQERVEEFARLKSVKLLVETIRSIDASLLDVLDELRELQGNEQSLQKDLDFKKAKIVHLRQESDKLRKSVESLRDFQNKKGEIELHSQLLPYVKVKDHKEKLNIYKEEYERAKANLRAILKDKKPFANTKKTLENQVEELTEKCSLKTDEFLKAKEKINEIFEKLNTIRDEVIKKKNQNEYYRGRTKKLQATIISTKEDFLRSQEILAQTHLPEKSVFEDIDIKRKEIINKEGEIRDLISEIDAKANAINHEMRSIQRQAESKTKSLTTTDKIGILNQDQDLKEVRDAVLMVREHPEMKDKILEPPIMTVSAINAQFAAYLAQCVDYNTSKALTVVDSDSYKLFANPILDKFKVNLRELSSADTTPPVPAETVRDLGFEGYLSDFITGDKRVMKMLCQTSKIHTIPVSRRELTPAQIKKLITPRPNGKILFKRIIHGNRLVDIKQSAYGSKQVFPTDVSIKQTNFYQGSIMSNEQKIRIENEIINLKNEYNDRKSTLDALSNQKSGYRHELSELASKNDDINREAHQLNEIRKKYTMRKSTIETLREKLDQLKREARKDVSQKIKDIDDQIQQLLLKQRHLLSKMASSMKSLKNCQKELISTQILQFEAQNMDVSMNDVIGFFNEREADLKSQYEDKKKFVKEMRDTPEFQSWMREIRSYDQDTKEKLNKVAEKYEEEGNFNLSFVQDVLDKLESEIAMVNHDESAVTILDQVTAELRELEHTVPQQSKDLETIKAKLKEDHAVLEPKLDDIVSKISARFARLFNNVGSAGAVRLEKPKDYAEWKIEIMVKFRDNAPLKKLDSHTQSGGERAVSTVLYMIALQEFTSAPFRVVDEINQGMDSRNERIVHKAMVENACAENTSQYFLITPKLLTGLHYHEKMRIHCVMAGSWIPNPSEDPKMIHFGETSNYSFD
Sequence of Smc5/6 core complex (S5-S6-N2) (Q12749 whole entry, chain 2 of 3): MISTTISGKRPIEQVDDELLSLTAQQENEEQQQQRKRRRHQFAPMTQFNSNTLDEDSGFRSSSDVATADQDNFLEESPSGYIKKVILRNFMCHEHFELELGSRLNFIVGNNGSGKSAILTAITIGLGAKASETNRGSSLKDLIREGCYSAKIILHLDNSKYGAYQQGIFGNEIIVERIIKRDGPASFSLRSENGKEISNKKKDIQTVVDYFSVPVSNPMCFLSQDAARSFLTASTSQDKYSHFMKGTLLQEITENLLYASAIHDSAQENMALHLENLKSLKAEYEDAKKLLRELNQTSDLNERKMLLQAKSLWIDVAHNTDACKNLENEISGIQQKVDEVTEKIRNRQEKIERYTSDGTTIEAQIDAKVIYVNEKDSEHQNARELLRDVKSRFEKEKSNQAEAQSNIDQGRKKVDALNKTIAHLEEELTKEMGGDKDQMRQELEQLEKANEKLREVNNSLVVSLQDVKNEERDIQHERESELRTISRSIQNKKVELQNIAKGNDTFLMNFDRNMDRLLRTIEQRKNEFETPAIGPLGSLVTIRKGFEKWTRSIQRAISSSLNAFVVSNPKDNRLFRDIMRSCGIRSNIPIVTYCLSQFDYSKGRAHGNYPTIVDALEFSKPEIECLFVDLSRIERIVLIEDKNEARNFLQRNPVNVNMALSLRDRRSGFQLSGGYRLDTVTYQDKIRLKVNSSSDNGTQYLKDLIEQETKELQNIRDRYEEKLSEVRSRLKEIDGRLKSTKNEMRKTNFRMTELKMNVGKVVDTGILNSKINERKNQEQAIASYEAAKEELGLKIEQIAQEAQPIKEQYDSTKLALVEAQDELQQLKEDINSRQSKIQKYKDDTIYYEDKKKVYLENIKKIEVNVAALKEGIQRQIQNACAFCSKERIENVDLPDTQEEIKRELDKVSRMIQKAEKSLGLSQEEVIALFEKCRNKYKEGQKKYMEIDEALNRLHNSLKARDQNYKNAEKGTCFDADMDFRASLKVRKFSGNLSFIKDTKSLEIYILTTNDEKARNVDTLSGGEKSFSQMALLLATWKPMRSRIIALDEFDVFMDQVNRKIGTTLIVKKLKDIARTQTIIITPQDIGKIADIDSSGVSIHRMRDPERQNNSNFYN
Sequence of Smc5/6 core complex (S5-S6-N2) (P38632 whole entry, chain 3 of 3): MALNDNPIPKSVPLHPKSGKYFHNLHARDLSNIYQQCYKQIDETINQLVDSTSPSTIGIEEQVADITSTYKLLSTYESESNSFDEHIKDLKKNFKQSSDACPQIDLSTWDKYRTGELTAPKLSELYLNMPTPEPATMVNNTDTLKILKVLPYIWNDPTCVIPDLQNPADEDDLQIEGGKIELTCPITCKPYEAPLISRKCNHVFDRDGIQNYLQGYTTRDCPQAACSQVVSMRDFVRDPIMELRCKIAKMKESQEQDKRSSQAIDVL

B1: oligonucleotide C, self-annealed dsDNA hairpin (structured_DNA)
DNA: ATCAGTACTTGTCAACACGAGCAGCCCGTATATTCTCCTACAGCACTAAATATAGTGCTGTAGGAGAATATACGGGCTGCTCGTGTTGACAAGTACTGAT
modifications: internal fluorescein-dT (iFT), between S3 and S4 (position 51, in loop)
As to B1, the Kd in series [1] was around 0.22 µM. For the same molecule, the binding result (with Nse5/6; in series [2]) was “no binding” each time.
